Results taken from patent US20110014117A1.

Key:
[1] = target: recombinant human soluble IGF1R fragment (R&D Systems) (human); assay: competitive ELISA on coated sIGF1R fragment, competitor biotinylated 19D12 LCF/HCA; antibody at 1 ug/ml
[2] = target: recombinant human soluble IGF1R fragment (R&D Systems) (human); assay: competitive ELISA on coated sIGF1R fragment, competitor biotinylated 19D12 LCF/HCA; antibody at 2 ug/ml
[3] = target: recombinant human soluble IGF1R fragment (R&D Systems) (human); assay: competitive ELISA on coated sIGF1R fragment, competitor biotinylated 19D12 LCF/HCA; antibody at 4 ug/ml
[4] = target: recombinant human soluble IGF1R fragment (R&D Systems) (human); assay: competitive ELISA on coated sIGF1R fragment, competitor biotinylated 19D12 LCF/HCA; antibody at 8 ug/ml
[5] = target: recombinant human soluble IGF1R fragment (R&D Systems) (human); assay: competitive ELISA on coated sIGF1R fragment, competitor biotinylated 19D12 LCF/HCA; antibody at 0.5 ug/ml
[6] = target: recombinant human soluble IGF1R fragment (R&D Systems) (human); assay: competitive ELISA on coated sIGF1R fragment, competitor biotinylated 19D12 LCF/HCA; antibody at 0.25 ug/ml
[7] = target: recombinant human soluble IGF1R fragment (R&D Systems) (human); assay: competitive ELISA on coated sIGF1R fragment, competitor biotinylated 19D12 LCF/HCA; antibody at 0.125 ug/ml
[8] = target: recombinant human soluble IGF1R fragment (R&D Systems) (human); assay: competitive ELISA on coated sIGF1R fragment, competitor biotinylated 19D12 LCF/HCA; antibody at 0.0625 ug/ml
[9] = target: recombinant human soluble IGF1R fragment (R&D Systems) (human); assay: competitive ELISA on coated sIGF1R fragment, competitor biotinylated 19D12 LCF/HCA; antibody at 0.03125 ug/ml
[10] = target: recombinant human soluble IGF1R fragment (R&D Systems) (human); assay: competitive ELISA on coated sIGF1R fragment, competitor biotinylated 19D12 LCF/HCA; antibody at 0.007813 ug/ml
[11] = target: recombinant human soluble IGF1R fragment (R&D Systems) (human); assay: competitive ELISA on coated sIGF1R fragment, competitor biotinylated 19D12 LCF/HCA; antibody at 0.015625 ug/ml
[12] = target: recombinant human soluble IGF1R fragment (R&D Systems) (human); assay: competitive ELISA on coated sIGF1R fragment, inhibition of biotinylated 19D12 LCF/HCA binding; antibody at 1 ug/ml
[13] = target: recombinant human soluble IGF1R fragment (R&D Systems) (human); assay: competitive ELISA on coated sIGF1R fragment, inhibition of biotinylated 19D12 LCF/HCA binding; antibody at 2 ug/ml
[14] = target: recombinant human soluble IGF1R fragment (R&D Systems) (human); assay: competitive ELISA on coated sIGF1R fragment, inhibition of biotinylated 19D12 LCF/HCA binding; antibody at 4 ug/ml
[15] = target: recombinant human soluble IGF1R fragment (R&D Systems) (human); assay: competitive ELISA on coated sIGF1R fragment, inhibition of biotinylated 19D12 LCF/HCA binding; antibody at 8 ug/ml
[16] = target: recombinant human soluble IGF1R fragment (R&D Systems) (human); assay: competitive ELISA on coated sIGF1R fragment, inhibition of biotinylated 19D12 LCF/HCA binding; antibody at 0.5 ug/ml
[17] = target: recombinant human soluble IGF1R fragment (R&D Systems) (human); assay: competitive ELISA on coated sIGF1R fragment, inhibition of biotinylated 19D12 LCF/HCA binding; antibody at 0.25 ug/ml
[18] = target: recombinant human soluble IGF1R fragment (R&D Systems) (human); assay: competitive ELISA on coated sIGF1R fragment, inhibition of biotinylated 19D12 LCF/HCA binding; antibody at 0.125 ug/ml
[19] = target: recombinant human soluble IGF1R fragment (R&D Systems) (human); assay: competitive ELISA on coated sIGF1R fragment, inhibition of biotinylated 19D12 LCF/HCA binding; antibody at 0.0625 ug/ml
[20] = target: recombinant human soluble IGF1R fragment (R&D Systems) (human); assay: competitive ELISA on coated sIGF1R fragment, inhibition of biotinylated 19D12 LCF/HCA binding; antibody at 0.03125 ug/ml
[21] = target: recombinant human soluble IGF1R fragment (R&D Systems) (human); assay: competitive ELISA on coated sIGF1R fragment, inhibition of biotinylated 19D12 LCF/HCA binding; antibody at 0.007813 ug/ml
[22] = target: recombinant human soluble IGF1R fragment (R&D Systems) (human); assay: competitive ELISA on coated sIGF1R fragment, inhibition of biotinylated 19D12 LCF/HCA binding; antibody at 0.015625 ug/ml

OD [1] [OD] | OD [2] [OD] | OD [3] [OD] | OD [4] [OD] | OD [5] [OD] | OD [6] [OD] | OD [7] [OD] | OD [8] [OD] | OD [9] [OD] | OD [10] [OD] | OD [11] [OD] | % Inhibition [12] [%] | % Inhibition [13] [%] | % Inhibition [14] [%] | % Inhibition [15] [%] | % Inhibition [16] [%] | % Inhibition [17] [%] | % Inhibition [18] [%] | % Inhibition [19] [%] | % Inhibition [20] [%] | Substance | other results
0.001 | -0.0025 | -0.0025 | -0.0045 | 0.021 | 0.169 | 0.443 | 1 | 1.1 | 1.23 | 1.25 | 99.9 | 100 | 100 | 100 | 98.4 | 86.8 | 65.3 | 21.7 | 13.8 | anti-IGF1R antibody 19D12 LCF/HCA | % Inhibition [21]: 4.05%; % Inhibition [22]: 2.33%
0.355 | 0.163 | 0.0725 | 0.045 | 0.628 | 0.981 | 1.16 | 1.24 | 1.41 | 1.31 | 1.25 | 72.2 | 87.2 | 94.3 | 96.5 | 50.9 | 23.3 | 9.61 | 2.69 | -10.1 | commercially available anti-IGF1R antibody MAB391 | % Inhibition [21]: -2.16%; % Inhibition [22]: 1.9%
